Measurements reported in publication PMC9352680, “A comprehensive thermodynamic model for RNA binding by the Saccharomyces cerevisiae Pumilio protein PUF4”.

Molecular target: T1, PUF4 RNA-binding domain (Saccharomyces cerevisiae, UniProt P25339 537-888)
T1 sequence: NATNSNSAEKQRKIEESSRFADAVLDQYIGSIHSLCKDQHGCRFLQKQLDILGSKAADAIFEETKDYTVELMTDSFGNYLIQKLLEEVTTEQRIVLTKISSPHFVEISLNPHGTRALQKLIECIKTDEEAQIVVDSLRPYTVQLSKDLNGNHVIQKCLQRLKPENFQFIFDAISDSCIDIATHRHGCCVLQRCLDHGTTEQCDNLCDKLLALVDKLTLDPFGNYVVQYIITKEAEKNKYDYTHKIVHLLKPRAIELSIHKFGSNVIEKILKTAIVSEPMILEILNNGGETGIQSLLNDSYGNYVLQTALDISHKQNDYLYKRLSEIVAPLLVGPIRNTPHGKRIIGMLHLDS
Experiment: Mg; RNA-MaP; 20 mM Na-HEPES pH 7.4, 30 mM KOAc, 0.75 mM MgCl2, 0.1% Tween-20, 5% glycerol, 0.1 mg/mL BSA, 2 mM DTT; 25 C; 0.0125-409.6 nM protein
Conditions: tags: N-His6-TEV cleaved; C-SNAP kept, Cy3B-labelled; label: tethered on chip by stalled RNA polymerase

UCUCUUUGUCUAUAUCUCUU (ssRNA) [Ia_S1_P3E.1_K3.1_C3.1_H3.1_[A4C]_A3.1_F3.1_T3.1]
Kd: 1170 nM

B1: Ib_S4_P4E.1_K4.1_C4.1_H4.1_[A4C]_A4.1_[T5A]_F4.1_T4.1 (ssRNA)
RNA: UUUGACAACUGAUCGUUCUUUCUUGUCAAUUAUUCUUUCUCGAUCAGUUGUCUUU
Kd: 48.4 nM

B2: Ib_S4_P4E.1_K4.1_C4.1_H4.1_[A4T]_A4.1_[T7C]_F4.1_T4.1 (ssRNA)
RNA: UUUGACAACUGAUCGUUCUUUCUUGUUUACUAUUCUUUCUCGAUCAGUUGUCUUU
Kd: 7.04 nM

B3: Ic_S4_P4E.1_K4.1_C4.1_H4.1_A4.1_[T5C]_[T7A]_F4.1_T4.1 (ssRNA)
RNA: UUUGACAACUGAUCGUUCUUUCUUGUACAAUAUUCUUUCUCGAUCAGUUGUCUUU
Kd: 0.996 nM

B4: Ib_S4_P4E.1_K4.1_C4.1_H4.1_[A4G]_A4.1_[A6G]_F4.1_T4.1 (ssRNA)
RNA: UUUGACAACUGAUCGUUCUUUCUUGUGUGUUAUUCUUUCUCGAUCAGUUGUCUUU
Kd: 10.8 nM

B5: Ib_S4_P4E.1_K4.1_C4.1_H4.1_[A4C]_A4.1_[T7A]_F4.1_T4.1 (ssRNA)
RNA: UUUGACAACUGAUCGUUCUUUCUUGUCUAAUAUUCUUUCUCGAUCAGUUGUCUUU
Kd: 19 nM

B6: Ib_S4_P4E.1_K4.1_C4.1_H4.1_A4.1_[A6C]_[T7G]_F4.1_T4.1 (ssRNA)
RNA: UUUGACAACUGAUCGUUCUUUCUUGUAUCGUAUUCUUUCUCGAUCAGUUGUCUUU
Kd: 14.5 nM

B7: Ib_S4_P4E.1_K4.1_C4.1_H4.1_[A4T]_A4.1_[A6C]_F4.1_T4.1 (ssRNA)
RNA: UUUGACAACUGAUCGUUCUUUCUUGUUUCUUAUUCUUUCUCGAUCAGUUGUCUUU
Kd: 54.8 nM

B8: Ib_S4_P4E.1_K4.1_C4.1_H4.1_A4.1_[T5G]_[A6T]_F4.1_T4.1 (ssRNA)
RNA: UUUGACAACUGAUCGUUCUUUCUUGUAGUUUAUUCUUUCUCGAUCAGUUGUCUUU
Kd: 5.58 nM

B9: Ib_S4_P4E.1_K4.1_C4.1_H4.1_A4.1_[A6C]_[T7A]_F4.1_T4.1 (ssRNA)
RNA: UUUGACAACUGAUCGUUCUUUCUUGUAUCAUAUUCUUUCUCGAUCAGUUGUCUUU
Kd: 0.977 nM

B10: Ib_S4_P4E.1_K4.1_C4.1_H4.1_[A4T]_A4.1_[A6G]_F4.1_T4.1 (ssRNA)
RNA: UUUGACAACUGAUCGUUCUUUCUUGUUUGUUAUUCUUUCUCGAUCAGUUGUCUUU
Kd: 64.1 nM

B11: Ic_S4_P4E.1_K4.1_C4.1_H4.1_A4.1_[T5C]_[T7G]_F4.1_T4.1 (ssRNA)
RNA: UUUGACAACUGAUCGUUCUUUCUUGUACAGUAUUCUUUCUCGAUCAGUUGUCUUU
Kd: 1.45 nM

B12: Ib_S4_P4E.1_K4.1_C4.1_H4.1_A4.1_[A6C]_[T7C]_F4.1_T4.1 (ssRNA)
RNA: UUUGACAACUGAUCGUUCUUUCUUGUAUCCUAUUCUUUCUCGAUCAGUUGUCUUU
Kd: 3.08 nM

B13: Ib_S4_P4E.1_K4.1_C4.1_H4.1_A4.1_[T5G]_[A6C]_F4.1_T4.1 (ssRNA)
RNA: UUUGACAACUGAUCGUUCUUUCUUGUAGCUUAUUCUUUCUCGAUCAGUUGUCUUU
Kd: 4.82 nM

B14: Ia_S4_P4E.1_K4.1_C4.1_H4.1_[G2A]_A4.1_F4.1_T4.1 (ssRNA)
RNA: UUUGACAACUGAUCGUUCUUUCUUAUAUAUUAUUCUUUCUCGAUCAGUUGUCUUU
Kd: 10.3 nM

B15: Ib_S4_P4E.1_K4.1_C4.1_H4.1_A4.1_[A6T]_[T7A]_F4.1_T4.1 (ssRNA)
RNA: UUUGACAACUGAUCGUUCUUUCUUGUAUUAUAUUCUUUCUCGAUCAGUUGUCUUU
Kd: 1.36 nM

B16: Ib_S4_P4E.1_K4.1_C4.1_H4.1_[A4C]_A4.1_[A6T]_F4.1_T4.1 (ssRNA)
RNA: UUUGACAACUGAUCGUUCUUUCUUGUCUUUUAUUCUUUCUCGAUCAGUUGUCUUU
Kd: 29.8 nM

B17: Ib_S4_P4E.1_K4.1_C4.1_H4.1_[A4T]_A4.1_[T5A]_F4.1_T4.1 (ssRNA)
RNA: UUUGACAACUGAUCGUUCUUUCUUGUUAAUUAUUCUUUCUCGAUCAGUUGUCUUU
Kd: 13.4 nM

B18: Ib_S4_P4E.1_K4.1_C4.1_H4.1_[A4T]_A4.1_[T7G]_F4.1_T4.1 (ssRNA)
RNA: UUUGACAACUGAUCGUUCUUUCUUGUUUAGUAUUCUUUCUCGAUCAGUUGUCUUU
Kd: 30.9 nM

B19: Ia_S4_P4E.1_K4.1_C4.1_H4.1_[G2T]_A4.1_F4.1_T4.1 (ssRNA)
RNA: UUUGACAACUGAUCGUUCUUUCUUUUAUAUUAUUCUUUCUCGAUCAGUUGUCUUU
Kd: 253 nM

B20: Ib_S4_P4E.1_K4.1_C4.1_H4.1_A4.1_[A6T]_[T7G]_F4.1_T4.1 (ssRNA)
RNA: UUUGACAACUGAUCGUUCUUUCUUGUAUUGUAUUCUUUCUCGAUCAGUUGUCUUU
Kd: 5.79 nM

B21: Ib_S4_P4E.1_K4.1_C4.1_H4.1_A4.1_[T5C]_[A6T]_F4.1_T4.1 (ssRNA)
RNA: UUUGACAACUGAUCGUUCUUUCUUGUACUUUAUUCUUUCUCGAUCAGUUGUCUUU
Kd: 1.04 nM

B22: Ic_S4_P4E.1_K4.1_C4.1_H4.1_A4.1_[A6T]_[T7C]_F4.1_T4.1 (ssRNA)
RNA: UUUGACAACUGAUCGUUCUUUCUUGUAUUCUAUUCUUUCUCGAUCAGUUGUCUUU
Kd: 2.33 nM

B23: Ib_S4_P4E.1_K4.1_C4.1_H4.1_A4.1_[T5A]_[T7C]_F4.1_T4.1 (ssRNA)
RNA: UUUGACAACUGAUCGUUCUUUCUUGUAAACUAUUCUUUCUCGAUCAGUUGUCUUU
Kd: 2.55 nM

B24: Ib_S4_P4E.1_K4.1_C4.1_H4.1_[A4C]_A4.1_[A6C]_F4.1_T4.1 (ssRNA)
RNA: UUUGACAACUGAUCGUUCUUUCUUGUCUCUUAUUCUUUCUCGAUCAGUUGUCUUU
Kd: 110 nM

B25: Ib_S4_P4E.1_K4.1_C4.1_H4.1_[A4C]_A4.1_[A6G]_F4.1_T4.1 (ssRNA)
RNA: UUUGACAACUGAUCGUUCUUUCUUGUCUGUUAUUCUUUCUCGAUCAGUUGUCUUU
Kd: 191 nM

B26: Ia_S4_P4E.1_K4.1_C4.1_H4.1_A4.1_F4.1_[A9G]_T4.1 (ssRNA)
RNA: UUUGACAACUGAUCGUUCUUUCUUGUAUAUUGUUCUUUCUCGAUCAGUUGUCUUU
Kd: 3.07 nM

B27: Ia_S4_P4E.1_K4.1_C4.1_H4.1_[G2C]_A4.1_F4.1_T4.1 (ssRNA)
RNA: UUUGACAACUGAUCGUUCUUUCUUCUAUAUUAUUCUUUCUCGAUCAGUUGUCUUU
Kd: 227 nM

B28: Ib_S4_P4E.1_K4.1_C4.1_H4.1_[A4C]_A4.1_[T7C]_F4.1_T4.1 (ssRNA)
RNA: UUUGACAACUGAUCGUUCUUUCUUGUCUACUAUUCUUUCUCGAUCAGUUGUCUUU
Kd: 12.9 nM

B29: Ib_S4_P5E.1_K5.1_C5.1_H5.1_A5.1_F5.1_[T8G]_[A10G]_T5.1 (ssRNA)
RNA: UUUGACAACUGAUCGUUCUUUCUUGUAUUAGUGUUCUUUCUCGAUCAGUUGUCUUU
Kd: 488 nM

B30: Ib_S4_P5E.1_K5.1_C5.1_H5.1_[A4G]_A5.1_F5.1_[T8C]_T5.1 (ssRNA)
RNA: UUUGACAACUGAUCGUUCUUUCUUGUGUUACUAUUCUUUCUCGAUCAGUUGUCUUU
Kd: 28.4 nM

B31: Ib_S4_P5E.1_K5.1_C5.1_H5.1_[G2A]_A5.1_F5.1_[T8A]_T5.1 (ssRNA)
RNA: UUUGACAACUGAUCGUUCUUUCUUAUAUUAAUAUUCUUUCUCGAUCAGUUGUCUUU
Kd: 598 nM

B32: Ib_S4_P5E.1_K5.1_C5.1_H5.1_[T3C]_A5.1_F5.1_[T8C]_T5.1 (ssRNA)
RNA: UUUGACAACUGAUCGUUCUUUCUUGCAUUACUAUUCUUUCUCGAUCAGUUGUCUUU
Kd: 478 nM

B33: Ib_S4_P5E.1_K5.1_C5.1_H5.1_[A4T]_A5.1_F5.1_[T8G]_T5.1 (ssRNA)
RNA: UUUGACAACUGAUCGUUCUUUCUUGUUUUAGUAUUCUUUCUCGAUCAGUUGUCUUU
Kd: 107 nM

B34: Ib_S4_P5E.1_K5.1_C5.1_H5.1_A5.1_F5.1_[T9A]_[A10T]_T5.1 (ssRNA)
RNA: UUUGACAACUGAUCGUUCUUUCUUGUAUUAUAUUUCUUUCUCGAUCAGUUGUCUUU
Kd: 1.18 nM

B35: Ib_S4_P5E.1_K5.1_C5.1_H5.1_[G2C]_A5.1_F5.1_[T8C]_T5.1 (ssRNA)
RNA: UUUGACAACUGAUCGUUCUUUCUUCUAUUACUAUUCUUUCUCGAUCAGUUGUCUUU
Kd: > 2300 nM

B36: Ib_S4_P5E.1_K5.1_C5.1_H5.1_A5.1_F5.1_[T8A]_[A10G]_T5.1 (ssRNA)
RNA: UUUGACAACUGAUCGUUCUUUCUUGUAUUAAUGUUCUUUCUCGAUCAGUUGUCUUU
Kd: 36.4 nM

B37: Ib_S4_P5E.1_K5.1_C5.1_H5.1_[G2A]_A5.1_F5.1_[T8G]_T5.1 (ssRNA)
RNA: UUUGACAACUGAUCGUUCUUUCUUAUAUUAGUAUUCUUUCUCGAUCAGUUGUCUUU
Kd: 628 nM

B38: Ib_S4_P5E.1_K5.1_C5.1_H5.1_[T3C]_A5.1_F5.1_[T8A]_T5.1 (ssRNA)
RNA: UUUGACAACUGAUCGUUCUUUCUUGCAUUAAUAUUCUUUCUCGAUCAGUUGUCUUU
Kd: 1010 nM

B39: Ic_S4_P5E.1_K5.1_C5.1_H5.1_A5.1_F5.1_[T9A]_[A10C]_T5.1 (ssRNA)
RNA: UUUGACAACUGAUCGUUCUUUCUUGUAUUAUACUUCUUUCUCGAUCAGUUGUCUUU
Kd: 7.38 nM

B40: Ib_S4_P5E.1_K5.1_C5.1_H5.1_[A4C]_A5.1_F5.1_[T8A]_T5.1 (ssRNA)
RNA: UUUGACAACUGAUCGUUCUUUCUUGUCUUAAUAUUCUUUCUCGAUCAGUUGUCUUU
Kd: 26.8 nM

B41: Ib_S4_P5E.1_K5.1_C5.1_H5.1_[T1G]_A5.1_F5.1_[T9A]_T5.1 (ssRNA)
RNA: UUUGACAACUGAUCGUUCUUUCUGGUAUUAUAAUUCUUUCUCGAUCAGUUGUCUUU
Kd: 1300 nM

B42: Ic_S4_P5E.1_K5.1_C5.1_H5.1_A5.1_F5.1_[T8C]_[A10G]_T5.1 (ssRNA)
RNA: UUUGACAACUGAUCGUUCUUUCUUGUAUUACUGUUCUUUCUCGAUCAGUUGUCUUU
Kd: 50.3 nM

B43: Ib_S4_P5E.1_K5.1_C5.1_H5.1_[T1C]_A5.1_F5.1_[T8A]_T5.1 (ssRNA)
RNA: UUUGACAACUGAUCGUUCUUUCUCGUAUUAAUAUUCUUUCUCGAUCAGUUGUCUUU
Kd: 964 nM

B44: Ib_S4_P5E.1_K5.1_C5.1_H5.1_A5.1_F5.1_[T9G]_[A10C]_T5.1 (ssRNA)
RNA: UUUGACAACUGAUCGUUCUUUCUUGUAUUAUGCUUCUUUCUCGAUCAGUUGUCUUU
Kd: 37 nM

B45: Ib_S4_P5E.1_K5.1_C5.1_H5.1_[A4C]_A5.1_F5.1_[T8C]_T5.1 (ssRNA)
RNA: UUUGACAACUGAUCGUUCUUUCUUGUCUUACUAUUCUUUCUCGAUCAGUUGUCUUU
Kd: 35.7 nM

B46: Ib_S4_P5E.1_K5.1_C5.1_H5.1_A5.1_F5.1_[T8G]_[A10T]_T5.1 (ssRNA)
RNA: UUUGACAACUGAUCGUUCUUUCUUGUAUUAGUUUUCUUUCUCGAUCAGUUGUCUUU
Kd: 393 nM

B47: Ib_S4_P5E.1_K5.1_C5.1_H5.1_[T1C]_A5.1_F5.1_[T8C]_T5.1 (ssRNA)
RNA: UUUGACAACUGAUCGUUCUUUCUCGUAUUACUAUUCUUUCUCGAUCAGUUGUCUUU
Kd: 688 nM
